# B1: TPR t1 (parent)
# chain: GACCAAUCUGCCCUCAGAGCUCGAGAACAUCUUCGGAUGCAGAGGAGGCAGGCUUCGGUGGCGCGAUAGCGCCAACGUCCUCAACCUCCAAUGCAUCCCACCACAUGAUGAUGCCUGAAGAGCCUUGGUUUUUUG
# Variants of: B1
# Test: polymerase ribozyme fitness, log enrichment relative to wild type (log ratio); higher = more active; in vitro selection for triplet polymerase activity
# Method in brief: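 Streptavidin-bead capture of gel-excised extended constructs, followed by RT-PCR, closed a single triplicate in vitro selection round. That round began by annealing PCR-built, transcribed mutant libraries of each subunit of a heterodimeric triplet polymerase ribozyme with a biotinylated primer, the partner subunit and triplets, then incubating them frozen at −7 °C. After Illumina sequencing of inputs and outputs, genotypes needed ≥10 input reads and ≥1 read per output. Fitness is the base-2 logarithm of genotype enrichment over wild-type enrichment, using inverse-variance-weighted replicate averages.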
row,Variant,polymerase ribozyme fitness (log ratio)
1,A18U C85U C94G,-5.59
2,G19A G39U G61U G120C U132A,-1.96
3,A18C C56G,-2.15
4,A18C G45A C53U,-4.6
5,A18G U81C C89U,-4.16
6,G19U U59A,-3.3
7,A18G C80U,-3.36
8,C20A U92G G110U,-5.28
9,A18C C20U,-1.33
10,G19U C56U C89G,-3.6
11,A18C C88U A95G,-2.41
12,A18C A43G G47C U54C C114U U126A,-5.87
13,G17U C49G C64U U131C,-2.89
14,A18U G44A U54A U59A C86U U106A,-4.83
15,C20A G71A,-3.79
16,C20A G45U C56U,-3.25
17,A18C A37C U112C,-1.3
18,A18U C20U U87G,-2.42
19,C20A C28U C62U C101A G113A,-6.69
20,G17C C98U C102A A111G A121G G122A,-6.68
21,C20A C56G,-3.63
22,C20A C56A,-2.5
23,C20A C56U,-2.54
24,A18C G45A C49G G61A U133A,-4.6

row,Variant,polymerase ribozyme fitness (log ratio)
1,G19U G120U,-2.46
2,A18C G52C U96C,-3.84
3,A18U G42A,-2.11
4,A18C A83C A91G A111C,-3.03
5,G19C C22U A46C G61U,-5.14
6,A18C A91U,-1.86
7,G19C C101A,-3.27
8,G17U G52U C62A C70U,-4.32
9,A18U G117U,-4.36
10,C20A U59A U78A G117A,-4.88
11,G19A C49G G63C G93C A105C G107C G117C,-6.07
12,G17U C53G U96C U126C,-4.06
13,A18G G60A C88U A90C,-4.63
14,G19C G69C C86G A121G,-3.28
15,A18U U54A A83U,-4.98
16,C20A U59C,-2.71
17,G19U C79U C82U A95C C101A,-4.63
18,A18G C49G U87A C89A U116C A118G,-4.85
19,G19C A41U C64G C98A U109A,-6.43
20,G17C G25U C34U G69U U112G,-7.59
21,C20A U32G G44A C73A C114G U132A,-5.73
22,G19A A41U C62U C94U,-3.23
23,A18C A43G C85G U96G,-4.07
24,G17U A18C C53G,-3.98

row,Variant,polymerase ribozyme fitness (log ratio)
1,G19U C86U,-2.9
2,A18U G44C G69U,-0.776
3,G19C G39A C53A C76U,-3.34
4,G17U C34G A68U C72G C85A C123A,-7.76
5,G17U G71A,-3.25
6,A18U G63U,-4.1
7,A18U G63A,-3.69
8,A18G C88U G113U,-2.52
9,G17U A24G U32C G61C G117C,-6.76
10,G19U G25A C53U C64G G107C C114G,-8.12
11,A18U A43C A121C,-0.924
12,G19C C62A U96A C124A G128C,-5.42
13,G17U U78A C79G C115U,-6.15
14,G19A C114A A121U,-1.17
15,A18G A43U C101G G120A,-4.32
16,G17C A90C A121C,-1.46
17,G19C A41U U130C,-2.43
18,C20A G93U U112G,-4.35
19,A18U G69A,-5.06
20,C20A U32A G93C,-4.21
21,A18U G57U C88U C101G,-6.08
22,G17U C20G G52A C73A G113A A119G,-1.98
23,C20A U87G U92G,-4.3
24,G19U A111C,-2.32

row,Variant,polymerase ribozyme fitness (log ratio)
1,A18U G36U G48U G69U G120U G122U,-1.69
2,G17U A29U C72U,-4.39
3,A18U C73U C101U G120A,-2.78
4,A18C G47U A111U U129G,-7.66
5,G19U A29G,-4.96
6,C20A G42C A43G,-3.32
7,A18U G47U G52A,-5.39
8,G19U C80A G113A,-5
9,C20A C70U,-3.19
10,G17C C80U A83U C115G,-2.85
11,G19U C70U U78C C88U,-3.57
12,G19A C62U C88A A121C,-1.46
13,G17U A68G C73G U112C,-5.21
14,C20A A95G U112A G120U,-1.91
15,G17C C73U,-4.07
16,A18C C40U A41G C56G,-3.24
17,A18C G52U A74U A95U A121G,-3.61
18,G19A C70A C94U,-5.61
19,G19U C72G U78A,-5.06
20,G19C A41U G71A C88G C89U C104A C124U,-5.88
21,G19A C104U,-2.85
22,G19U G51A G60A G77C G113U,-6.6
23,C20A C88A,-2.94
24,A18U A43U C101G,-3.57

row,Variant,polymerase ribozyme fitness (log ratio)
1,G17U A84U U96G G128U U130C,-3.54
2,G19U G58C,-4.22
3,G17U C72A,-1.86
4,A18U C76A,-3.36
5,A18U G44U G110A,-5.32
6,C20A G45U,-4.09
7,G19A G45A C62U G71A,-3.18
8,A18G C72G A84G U92A C115A,-5.47
9,G19C C20A C56U G71A A95U C102U U116C C123U U126G,-5.6
10,G17U G44U C72G C85U U96A A121G C124G,-3.95
11,G19U G23C A27G A41C A46U G47C C70U C115U G135A,-5.42
12,G19A G63C C76A G93A G110C,-5.44
13,C20A C76U C82G U96G,-4.53
14,G17U G135U,-3.6
15,C20A G52C U125A,-3.04
16,A18C G42A G44U C53G G93A,-4.64
17,G19C C88U,-2.6
18,A18U C124A,-0.753
19,G17U C34A U112A G120C,-6.92
20,A18U C62U C89A U133A,-2.36
21,C20A G63U C85G,-5.08
22,C20A G77U G120C,-1.96
23,A18U G58A U112A G122U,-2.54
24,A18G G42A C72G G113A U132A,-2.54

row,Variant,polymerase ribozyme fitness (log ratio)
1,G19U G110A,-4.35
2,A18G C22A G42C U54G G63C U112G,-5.39
3,A18U C94G A121C U126G,-5.02
4,A18U A41C,-2.34
5,C20A C70A C123A U130A,-4.36
6,A18U A43C C49U,-3.92
7,G19A C20U,-1.54
8,G19C C70U U112A G120A U130C,-2.23
9,A18U G61A C70U C115A,-5.05
10,G17U C64U U78C,-3.17
11,G19U A41U G63C A111G,-4.2
12,G17C U106G C115G,0.318
13,G19A G60A,-1.41
14,A18C G42U G69C,-3.2
15,G19C G45A C53U,-3.65
16,A18G C124U,-0.797
17,A18G A66U G113A U126C U133A,-4.19
18,A18C C88U A90G C114G,-0.417
19,G17U C34G A50G,-7.24
20,G17U G47A G71C,-3.03
21,G17U G47A G71U,-3.24
22,A18U C123G U129A,-1.83
23,C20A A43C C94U,-4.19
24,G19U C53G C73A U112A G135A,-0.754

row,Variant,polymerase ribozyme fitness (log ratio)
1,C20A G39A G42C G61U U129C,-5.17
2,C20A C62G A66C C104G U116C C123G G128U,-6.82
3,G19A A29G,-3.47
4,G17U C88U,-2.42
5,G17C C56U,-3.79
6,G17U G42U G128A,-5.51
7,A18U G52U G61A,-2.78
8,A18G C56G A103C C115G U129G U130C,-6.47
9,A18G G63A C115A C123U,-6.7
10,A18U A41U C114U C115G U116G A121G G122U,-3.05
11,C20A C73U,-2.08
12,A18G G120C,-0.633
13,A18G G120U,-2.46
14,G19C C49A A50U G69U C89U U106A C123G U132A U133G,-1.46
15,G17U C88U G127C,-3.89
16,A18G C70U C82A,-6.34
17,G19U U55G U87G A95C U112C C114A,0.393
18,A18U C76A C94U U112C,-1.22
19,C20A G48U C70A U78G G113A G117C,-7.02
20,C20A C56U U96G,-3.51
21,C20A G60A G113C,-5.06
22,C20A C72G U131G,-3.6
23,A18U U116C G117A,-4.83

# Source: the RNAGym collection of RNA variant scans (doi:10.1073/pnas.2313332121)
